Source: the supplement of paper PMC6757056
± gives the standard deviation of the averaged measurements.

B1: library; a variant is named by its letters at N, in order (parent)
chain: GCUGUCACCGGUGUAUUACCCUAGUGGUCGACCGGUCUGAUGAGUCUNNNNNNAGACGAAACAGC

Legend:
hypoxanthine [1] = variants of: B1; assay: normalized RNA/DNA level with ligand (relative to sTRSVctl = 100) (log10 (% of sTRSVctl)); ligand: hypoxanthine (xanthine aptamer); higher = less ribozyme self-cleavage, higher mRNA level; settings: ligand concentration (+) RNA-Seq: 5 mM, HEK293T, reporter: mCherry (pCS4076), ligand present: yes
Summary of the method: (§1)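 Library plasmids encoding reporter-linked ribozyme switches (mCherry, or eGFP for some folinic acid experiments) were transfected into HEK293T at 4 µg per 6-well well. Ligand, when used, was added 1 h before transfection. Total RNA was extracted with EDTA 72 h later, then reverse-transcribed, amplified, barcoded and sequenced. RNA level was RNA reads over DNA reads, divided by a spiked-in non-cleaving control (or the top 25 sequences), ×100, log10; only sequences with ≥100 DNA reads were kept.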

hypoxanthine [2] = variants of: B1; assay: normalized RNA/DNA level without ligand (relative to sTRSVctl = 100) (log10 (% of sTRSVctl)); ligand: hypoxanthine (xanthine aptamer); higher = less ribozyme self-cleavage, higher mRNA level; settings: HEK293T, reporter: mCherry (pCS4076), ligand present: no
Summary of the method: as §1

Row | Variant | normalized RNA/DNA level with ligand (log10) (hypoxanthine [1]) | normalized RNA/DNA level without ligand (log10) (hypoxanthine [2])
1 | GCUGUCACCGGUGUAUUACCCUAGUGGUCGACCGGUCUGAUGAGUCUAGCUUAAGACGAAACAGC [AGCUUA] | 1.91 ± 0.057 | 1.85 ± 0.0089
2 | GCUGUCACCGGUGUAUUACCCUAGUGGUCGACCGGUCUGAUGAGUCUCGCUCUAGACGAAACAGC [CGCUCU] | 2.02 ± 0.061 | 1.93 ± 0.048
3 | GCUGUCACCGGUGUAUUACCCUAGUGGUCGACCGGUCUGAUGAGUCUCGCUCCAGACGAAACAGC [CGCUCC] | 1.956 ± 0.013 | 1.93 ± 0.027
4 | GCUGUCACCGGUGUAUUACCCUAGUGGUCGACCGGUCUGAUGAGUCUCGCUCAAGACGAAACAGC [CGCUCA] | 2.01 ± 0.059 | 1.905 ± 0.012
5 | GCUGUCACCGGUGUAUUACCCUAGUGGUCGACCGGUCUGAUGAGUCUGGCUACAGACGAAACAGC [GGCUAC] | 1.933 ± 0.0082 | 1.79 ± 0.093
6 | GCUGUCACCGGUGUAUUACCCUAGUGGUCGACCGGUCUGAUGAGUCUGGCUAUAGACGAAACAGC [GGCUAU] | 1.953 ± 0.0089 | 1.876 ± 0.005
7 | GCUGUCACCGGUGUAUUACCCUAGUGGUCGACCGGUCUGAUGAGUCUGGCUAAAGACGAAACAGC [GGCUAA] | 1.94 ± 0.046 | 1.86 ± 0.017
8 | GCUGUCACCGGUGUAUUACCCUAGUGGUCGACCGGUCUGAUGAGUCUGGCUAGAGACGAAACAGC [GGCUAG] | 1.812 ± 0.005 | 1.54 ± 0.039
9 | GCUGUCACCGGUGUAUUACCCUAGUGGUCGACCGGUCUGAUGAGUCUUGCUAGAGACGAAACAGC [UGCUAG] | 1.94 ± 0.025 | 1.658 ± 0.0069
10 | GCUGUCACCGGUGUAUUACCCUAGUGGUCGACCGGUCUGAUGAGUCUUGCUAAAGACGAAACAGC [UGCUAA] | 1.92 ± 0.066 | 1.832 ± 0.0053
11 | GCUGUCACCGGUGUAUUACCCUAGUGGUCGACCGGUCUGAUGAGUCUUGCUACAGACGAAACAGC [UGCUAC] | 1.937 ± 0.0075 | 1.847 ± 0.014
12 | GCUGUCACCGGUGUAUUACCCUAGUGGUCGACCGGUCUGAUGAGUCUCGCUUCAGACGAAACAGC [CGCUUC] | 1.996 ± 0.0043 | 1.92 ± 0.14
13 | GCUGUCACCGGUGUAUUACCCUAGUGGUCGACCGGUCUGAUGAGUCUCGCUUAAGACGAAACAGC [CGCUUA] | 1.861 ± 0.0029 | 1.7 ± 0.036
14 | GCUGUCACCGGUGUAUUACCCUAGUGGUCGACCGGUCUGAUGAGUCUAGCUAGAGACGAAACAGC [AGCUAG] | 1.83 ± 0.066 | 1.508 ± 0.0088
15 | GCUGUCACCGGUGUAUUACCCUAGUGGUCGACCGGUCUGAUGAGUCUAGCUAAAGACGAAACAGC [AGCUAA] | 1.912 ± 0.0024 | 1.845 ± 0.013
16 | GCUGUCACCGGUGUAUUACCCUAGUGGUCGACCGGUCUGAUGAGUCUAGCUAUAGACGAAACAGC [AGCUAU] | 1.96 ± 0.012 | 1.825 ± 0.0081
17 | GCUGUCACCGGUGUAUUACCCUAGUGGUCGACCGGUCUGAUGAGUCUUGCUGUAGACGAAACAGC [UGCUGU] | 1.95 ± 0.0027 | 1.92 ± 0.03
18 | GCUGUCACCGGUGUAUUACCCUAGUGGUCGACCGGUCUGAUGAGUCUUGCUGCAGACGAAACAGC [UGCUGC] | 1.972 ± 0.011 | 1.958 ± 0.006
19 | GCUGUCACCGGUGUAUUACCCUAGUGGUCGACCGGUCUGAUGAGUCUUGCUGGAGACGAAACAGC [UGCUGG] | 1.95 ± 0.04 | 1.707 ± 0.011
20 | GCUGUCACCGGUGUAUUACCCUAGUGGUCGACCGGUCUGAUGAGUCUUGCUUCAGACGAAACAGC [UGCUUC] | 1.988 ± 0.0048 | 1.96 ± 0.045
21 | GCUGUCACCGGUGUAUUACCCUAGUGGUCGACCGGUCUGAUGAGUCUUGCUUAAGACGAAACAGC [UGCUUA] | 1.937 ± 0.019 | 1.95 ± 0.046

Row | Variant | normalized RNA/DNA level with ligand (log10) (hypoxanthine [1]) | normalized RNA/DNA level without ligand (log10) (hypoxanthine [2])
22 | GCUGUCACCGGUGUAUUACCCUAGUGGUCGACCGGUCUGAUGAGUCUGGCUCUAGACGAAACAGC [GGCUCU] | 2.03 ± 0.066 | 1.99 ± 0.064
23 | GCUGUCACCGGUGUAUUACCCUAGUGGUCGACCGGUCUGAUGAGUCUGGCUCGAGACGAAACAGC [GGCUCG] | 1.98 ± 0.027 | 1.834 ± 0.012
24 | GCUGUCACCGGUGUAUUACCCUAGUGGUCGACCGGUCUGAUGAGUCUGGCUCCAGACGAAACAGC [GGCUCC] | 1.989 ± 0.014 | 1.898 ± 0.018
25 | GCUGUCACCGGUGUAUUACCCUAGUGGUCGACCGGUCUGAUGAGUCUUGCUCGAGACGAAACAGC [UGCUCG] | 1.941 ± 0.016 | 1.77 ± 0.046
26 | GCUGUCACCGGUGUAUUACCCUAGUGGUCGACCGGUCUGAUGAGUCUUGCUCCAGACGAAACAGC [UGCUCC] | 1.972 ± 0.002 | 1.94 ± 0.037
27 | GCUGUCACCGGUGUAUUACCCUAGUGGUCGACCGGUCUGAUGAGUCUUGCUCUAGACGAAACAGC [UGCUCU] | 1.91 ± 0.042 | 1.949 ± 0.017
28 | GCUGUCACCGGUGUAUUACCCUAGUGGUCGACCGGUCUGAUGAGUCUCGCUGUAGACGAAACAGC [CGCUGU] | 1.94 ± 0.06 | 1.9375 ± 0.00087
29 | GCUGUCACCGGUGUAUUACCCUAGUGGUCGACCGGUCUGAUGAGUCUCGCUGGAGACGAAACAGC [CGCUGG] | 1.889 ± 0.0061 | 1.42 ± 0.024
30 | GCUGUCACCGGUGUAUUACCCUAGUGGUCGACCGGUCUGAUGAGUCUGGCUUAAGACGAAACAGC [GGCUUA] | 1.967 ± 0.014 | 1.88 ± 0.025
31 | GCUGUCACCGGUGUAUUACCCUAGUGGUCGACCGGUCUGAUGAGUCUGGCUUCAGACGAAACAGC [GGCUUC] | 1.99 ± 0.03 | 1.98 ± 0.041
32 | GCUGUCACCGGUGUAUUACCCUAGUGGUCGACCGGUCUGAUGAGUCUAGCUCCAGACGAAACAGC [AGCUCC] | 1.97 ± 0.14 | 1.95 ± 0.034
33 | GCUGUCACCGGUGUAUUACCCUAGUGGUCGACCGGUCUGAUGAGUCUAGCUCAAGACGAAACAGC [AGCUCA] | 1.998 ± 0.00082 | 1.895 ± 0.011
34 | GCUGUCACCGGUGUAUUACCCUAGUGGUCGACCGGUCUGAUGAGUCUAGCUCUAGACGAAACAGC [AGCUCU] | 1.96 ± 0.033 | 1.89 ± 0.04
35 | GCUGUCACCGGUGUAUUACCCUAGUGGUCGACCGGUCUGAUGAGUCUCGCUACAGACGAAACAGC [CGCUAC] | 1.86 ± 0.041 | 1.74 ± 0.074
36 | GCUGUCACCGGUGUAUUACCCUAGUGGUCGACCGGUCUGAUGAGUCUCGCUAAAGACGAAACAGC [CGCUAA] | 1.91 ± 0.061 | 1.71 ± 0.028
37 | GCUGUCACCGGUGUAUUACCCUAGUGGUCGACCGGUCUGAUGAGUCUCGCUAUAGACGAAACAGC [CGCUAU] | 1.91 ± 0.092 | 1.78 ± 0.028
38 | GCUGUCACCGGUGUAUUACCCUAGUGGUCGACCGGUCUGAUGAGUCUAGCUGUAGACGAAACAGC [AGCUGU] | 1.938 ± 0.0047 | 1.75 ± 0.028
39 | GCUGUCACCGGUGUAUUACCCUAGUGGUCGACCGGUCUGAUGAGUCUGGCUGGAGACGAAACAGC [GGCUGG] | 1.9543 ± 0.0009 | 1.66 ± 0.048
40 | GCUGUCACCGGUGUAUUACCCUAGUGGUCGACCGGUCUGAUGAGUCUGGCUGAAGACGAAACAGC [GGCUGA] | 2.01 ± 0.032 | 1.87 ± 0.026
41 | GCUGUCACCGGUGUAUUACCCUAGUGGUCGACCGGUCUGAUGAGUCUGGCUGCAGACGAAACAGC [GGCUGC] | 1.92 ± 0.048 | 1.58 ± 0.039
42 | GCUGUCACCGGUGUAUUACCCUAGUGGUCGACCGGUCUGAUGAGUCUGGCUGUAGACGAAACAGC [GGCUGU] | 1.96 ± 0.025 | 1.95 ± 0.046
